Laboratory results as given in publication PMC6688830, “A Ubiquitin-Binding Domain that Binds a Structural Fold Distinct from that of Ubiquitin” (Structure(London, England:1993), 2019).
Where a chain is given by its changes, count along the chain named.

T1: FLAG-SMARCAD1 (WT) (human, UniProt Q9H4L7 1-1026)
T1 construct: SMARCAD1, human, UniProt Q9H4L7, full length; also called wild-type SMARCAD1; pET28a-SUMO-F-SMARCAD1; source: E. coli BL-21 CodonPlus (DE3)-RIL, purified (HisTrap, Ulp1, heparin, ProSwift SAX)
T1 sequence (looked up): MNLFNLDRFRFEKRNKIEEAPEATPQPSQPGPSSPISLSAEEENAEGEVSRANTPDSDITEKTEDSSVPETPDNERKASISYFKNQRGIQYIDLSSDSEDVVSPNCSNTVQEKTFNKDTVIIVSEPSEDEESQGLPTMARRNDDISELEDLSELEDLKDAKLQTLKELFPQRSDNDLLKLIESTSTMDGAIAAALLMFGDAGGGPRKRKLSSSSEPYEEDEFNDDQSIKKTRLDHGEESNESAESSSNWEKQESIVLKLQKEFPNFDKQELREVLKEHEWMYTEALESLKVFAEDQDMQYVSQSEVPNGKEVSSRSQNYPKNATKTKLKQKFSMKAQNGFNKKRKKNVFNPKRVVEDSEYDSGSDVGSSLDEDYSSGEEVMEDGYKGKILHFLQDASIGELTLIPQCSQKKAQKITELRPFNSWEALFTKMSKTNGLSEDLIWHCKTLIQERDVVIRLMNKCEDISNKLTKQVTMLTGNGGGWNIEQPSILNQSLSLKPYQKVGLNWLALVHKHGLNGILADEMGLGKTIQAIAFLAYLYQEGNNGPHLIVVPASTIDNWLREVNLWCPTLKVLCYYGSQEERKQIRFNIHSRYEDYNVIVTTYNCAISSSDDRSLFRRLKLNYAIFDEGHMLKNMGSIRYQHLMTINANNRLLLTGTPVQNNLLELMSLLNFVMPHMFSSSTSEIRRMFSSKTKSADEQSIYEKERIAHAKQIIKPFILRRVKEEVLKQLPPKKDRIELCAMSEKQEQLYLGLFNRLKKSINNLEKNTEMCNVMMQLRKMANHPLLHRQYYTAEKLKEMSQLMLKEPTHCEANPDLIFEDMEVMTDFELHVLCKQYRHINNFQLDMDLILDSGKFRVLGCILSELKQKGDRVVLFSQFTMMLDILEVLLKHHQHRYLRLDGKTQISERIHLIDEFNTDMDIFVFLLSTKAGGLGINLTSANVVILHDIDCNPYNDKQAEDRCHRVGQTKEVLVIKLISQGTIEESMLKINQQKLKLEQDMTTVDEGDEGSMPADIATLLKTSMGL

B1: FLAG-CUE1 (domain or fragment, human, UniProt Q9H4L7 95-237, looked up)
chain: SSDSEDVVSPNCSNTVQEKTFNKDTVIIVSEPSEDEESQGLPTMARRNDDISELEDLSELEDLKDAKLQTLKELFPQRSDNDLLKLIESTSTMDGAIAAALLMFGDAGGGPRKRKLSSSSEPYEEDEFNDDQSIKKTRLDHGE
notes: SMARCAD1, human, UniProt Q9H4L7, residues S95-E237 (first CUE domain); also called wild-type CUE1 fragment (S95-E237); SMARCAD1 CUE1; source: E. coli BL-21 CodonPlus (DE3)-RIL, purified (Ni-NTA, Ulp1, Mono Q if required)
B2: FLAG-CUE1,2 (WT) (domain or fragment, human, UniProt Q9H4L7 95-347, looked up)
chain: SSDSEDVVSPNCSNTVQEKTFNKDTVIIVSEPSEDEESQGLPTMARRNDDISELEDLSELEDLKDAKLQTLKELFPQRSDNDLLKLIESTSTMDGAIAAALLMFGDAGGGPRKRKLSSSSEPYEEDEFNDDQSIKKTRLDHGEESNESAESSSNWEKQESIVLKLQKEFPNFDKQELREVLKEHEWMYTEALESLKVFAEDQDMQYVSQSEVPNGKEVSSRSQNYPKNATKTKLKQKFSMKAQNGFNKKRKKN
notes: SMARCAD1, human, UniProt Q9H4L7, residues S95-N347 (both CUE domains); also called SMARCAD1 CUE1,2 (S95-N347); wild-type CUE1,2; source: E. coli BL-21 CodonPlus (DE3)-RIL, purified (Ni-NTA, Ulp1, Mono Q if required)
B3: HA-KAP1 (natural protein, human, UniProt Q13263 1-835, looked up)
chain: MAASAAAASAAAASAASGSPGPGEGSAGGEKRSTAPSAAASASASAAASSPAGGGAEALELLEHCGVCRERLRPEREPRLLPCLHSACSACLGPAAPAAANSSGDGGAAGDGTVVDCPVCKQQCFSKDIVENYFMRDSGSKAATDAQDANQCCTSCEDNAPATSYCVECSEPLCETCVEAHQRVKYTKDHTVRSTGPAKSRDGERTVYCNVHKHEPLVLFCESCDTLTCRDCQLNAHKDHQYQFLEDAVRNQRKLLASLVKRLGDKHATLQKSTKEVRSSIRQVSDVQKRVQVDVKMAILQIMKELNKRGRVLVNDAQKVTEGQQERLERQHWTMTKIQKHQEHILRFASWALESDNNTALLLSKKLIYFQLHRALKMIVDPVEPHGEMKFQWDLNAWTKSAEAFGKIVAERPGTNSTGPAPMAPPRAPGPLSKQGSGSSQPMEVQEGYGFGSGDDPYSSAEPHVSGVKRSRSGEGEVSGLMRKVPRVSLERLDLDLTADSQPPVFKVFPGSTTEDYNLIVIERGAAAAATGQPGTAPAGTPGAPPLAGMAIVKEEETEAAIGAPPTATEGPETKPVLMALAEGPGAEGPRLASPSGSTSSGLEVVAPEGTSAPGGGPGTLDDSATICRVCQKPGDLVMCNQCEFCFHLDCHLPALQDVPGEEWSCSLCHVLPDLKEEDGSLSLDGADSTGVVAKLSPANQRKCERVLLALFCHEPCRPLHQLATDSTFSLDQPGGTLDLTLIRARLQEKLSPPYSSPQEFAQDVGRMFKQFNKLTEDKADVQSIIGLQRFFETRMNEAFGDTKFSAVLVEPPPMSLPGAGLSSQELSGGPGDGP
notes: KAP1 (TRIM28), human, UniProt Q13263, full length; also called hemagglutinin-tagged KAP1; TRIM28; source: E. coli BL-21 CodonPlus (DE3)-RP, purified (HisTrap, Ulp1, heparin, Sephacryl S-400)
B4: FLAG-CUE1,2 P170A (domain or fragment, human, UniProt Q9H4L7 95-347, looked up)
chain: B2 chain with P76A
notes: SMARCAD1, human, UniProt Q9H4L7, CUE1,2 fragment S95-N347; source: E. coli BL-21 CodonPlus (DE3)-RIL, purified (Ni-NTA, Ulp1, Mono Q if required)
B5: FLAG-CUE1,2 L195A (domain or fragment, human, UniProt Q9H4L7 95-347, looked up)
chain: B2 chain with L101A
notes: as for B4
B6: FLAG-CUE1,2 L196A (domain or fragment, human, UniProt Q9H4L7 95-347, looked up)
chain: B2 chain with L102A
notes: as for B4
B7: FLAG-CUE1,2 K166A (domain or fragment, human, UniProt Q9H4L7 95-347, looked up)
chain: B2 chain with K72A
notes: as for B4
B8: FLAG-CUE1,2 Q171A (domain or fragment, human, UniProt Q9H4L7 95-347, looked up)
chain: B2 chain with Q77A
notes: as for B4
B9: FLAG-CUE1,2 K161A (domain or fragment, human, UniProt Q9H4L7 95-347, looked up)
chain: B2 chain with K67A
notes: as for B4
B10: FLAG-CUE1,2 E167A (domain or fragment, human, UniProt Q9H4L7 95-347, looked up)
chain: B2 chain with E73A
notes: as for B4
B11: FLAG-CUE1,2 D188A (domain or fragment, human, UniProt Q9H4L7 95-347, looked up)
chain: B2 chain with D94A
notes: as for B4
B12: FLAG-CUE1,2 A192G (domain or fragment, human, UniProt Q9H4L7 95-347, looked up)
chain: B2 chain with A98G
notes: as for B4

Key:
Conditions in all cases: both partners purified
Ubiquitin = target: T2, Ubiquitin (UniProt P0CG48 1-76); assay: ITC; MicroCal ITC200, 10°C; 120 μM SMARCAD1 CUE1 or CUE1,2 in the cell, 9.8 mM mono-Ub in the syringe; 10 mM Tris-HCl pH 7.9, 100 mM NaCl, 5 mM β-ME; One set of sites model
T2 construct: ubiquitin, monomeric, the cut product of a ubiquitin precursor; also called mono-Ub; monomeric ubiquitin; source: bought: Boston Biochem (purified recombinant)

KAP1 S33-K434 [1] = target: T3, KAP1 S33-K434 (human, UniProt Q13263 33-434); assay: ITC; MicroCal ITC200, 20°C; KAP1 RBCC (9-18 μM) in the cell, SMARCAD1 CUE1 or CUE1,2 (90-300 μM) in the syringe; 10 mM Tris-HCl pH 7.9, 100 mM NaCl, 5 mM β-ME; One set of sites model
T3 construct: KAP1 (TRIM28), human, UniProt Q13263, residues S33-K434 (RBCC domain); The crystal structures of shorter RBCC constructs show an antiparallel homodimer; also called KAP1 RBCC (S33-K434); KAP1 RBCC; source: E. coli BL-21 CodonPlus (DE3)-RP, purified (Ni-NTA, Ulp1, Mono Q)

KAP1 S33-K434 L376A = target: T4, KAP1 S33-K434 L376A (human, UniProt Q13263 33-434, L376A); assay: co-IP; purified SMARCAD1 fragments (FLAG-CUE1,2, FLAG-CUE1) and KAP1 RBCC, 9.6μg each in 240μL, 4°C 1 hour; anti-FLAG M2 affinity gel 3 hours
T4 construct: KAP1 (TRIM28), human, UniProt Q13263, residues S33-K434 (RBCC domain); source: E. coli BL-21 CodonPlus (DE3)-RP, purified (Ni-NTA, Ulp1, Mono Q)
T4 sequence (Q13263 33-434 L376A): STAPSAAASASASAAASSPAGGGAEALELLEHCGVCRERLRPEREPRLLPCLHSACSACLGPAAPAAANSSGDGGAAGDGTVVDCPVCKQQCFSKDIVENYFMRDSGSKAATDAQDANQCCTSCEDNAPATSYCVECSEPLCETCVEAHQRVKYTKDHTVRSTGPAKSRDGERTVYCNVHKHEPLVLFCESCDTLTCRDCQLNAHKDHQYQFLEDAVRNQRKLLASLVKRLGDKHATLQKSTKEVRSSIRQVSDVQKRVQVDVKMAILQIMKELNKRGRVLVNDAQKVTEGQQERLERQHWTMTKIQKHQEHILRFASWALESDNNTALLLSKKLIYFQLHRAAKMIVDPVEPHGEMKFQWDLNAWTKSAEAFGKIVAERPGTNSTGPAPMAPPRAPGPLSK

KAP1 S33-K434 V380A = target: T5, KAP1 S33-K434 V380A (human, UniProt Q13263 33-434, V380A); assay: as above
T5 construct: KAP1 (TRIM28), human, UniProt Q13263, residues S33-K434 (RBCC domain); source: E. coli BL-21 CodonPlus (DE3)-RP, purified (Ni-NTA, Ulp1, Mono Q)
T5 sequence (Q13263 33-434 V380A): as the sequence (Q13263 33-434 L376A) above, with A344L, V348A counted along it

KAP1 S33-K434 I379A = target: T6, KAP1 S33-K434 I379A (human, UniProt Q13263 33-434, I379A); assay: as above
T6 construct: KAP1 (TRIM28), human, UniProt Q13263, residues S33-K434 (RBCC domain); source: E. coli BL-21 CodonPlus (DE3)-RP, purified (Ni-NTA, Ulp1, Mono Q)
T6 sequence (Q13263 33-434 I379A): as the sequence (Q13263 33-434 L376A) above, with A344L, I347A counted along it

FLAG-SMARCAD1 (WT) = target: T1, FLAG-SMARCAD1 (WT); assay: co-IP; purified full-length SMARCAD1 and KAP1 from E. coli, 7μg each in 280μL SK binding buffer, 200mM NaCl, 4°C; immunoprecipitated with anti-FLAG M2 affinity gel
KAP1 S33-K434 [2] = target: T3, KAP1 S33-K434; assay: co-IP; purified SMARCAD1 fragments (FLAG-CUE1,2, FLAG-CUE1) and KAP1 RBCC, 9.6μg each in 240μL, 4°C 1 hour; anti-FLAG M2 affinity gel 3 hours

Row | Binder | binding result (KAP1 S33-K434 [2]) | further results
1 | B1 |  | Kd (Ubiquitin): ~952 µM; Kd (KAP1 S33-K434 [1]): ~0.158 µM
2 | B2 |  | Kd (Ubiquitin): ~389 µM; Kd (KAP1 S33-K434 [1]): ~0.21 µM; binding result (KAP1 S33-K434 L376A): binds; binding result (KAP1 S33-K434 V380A): binds; binding result (KAP1 S33-K434 I379A): binds
3 | B3 |  | binding result (FLAG-SMARCAD1 (WT)): binds
4 | B4 | binds | 
5 | B5 | binds | 
6 | B6 | binds | 
7 | B7 | binds | 
8 | B8 | binds | 
9 | B9 | binds | 
10 | B10 | binds | 
11 | B11 | binds | 
12 | B12 | binds | 
